We go through six molecules from patent publication US20060188440A1 (FOX CHASE CANCER CENTER, published 2006).

Assay [1] deals with T1, MISIIR-Fc ECD fusion protein (human, UniProt Q16671 18-149).
T1 construct: extracellular domain; Two orientations were made (ECD 5' or 3' of Fc); The secretion signal from the vector is not part of the secreted protein; also called MISIIR-Fc fusion protein; MISIIR ECD; not shown: tobacco etch virus cleavage site between MISIIR and Fc; human IgG1 Fc domain; C-terminal c-myc tag and 6xHis tag from the pSecTag2/Hygro vector
Description: assay not named in the sentence (ELISA / SPR of Example 1).

Assay [2] has as its target T1, MISIIR-Fc ECD fusion protein. Description: SPR (BIAcore 1000), MISIIR-Fc ECD on CM5 chip (600 RU), serially diluted scFv. How it is done:
(§1) Surface plasmon resonance (SPR) technology was used to determine the binding of the anti-MISIIR molecules to MISIIR ECD. The SPR response reflects a change in the mass concentration as molecules bind or dissociate from an antigen immobilized on a sensor chip. These studies were performed on a BIAcore 1000 instrument. The MISIIR-Fc ECD fusion protein target antigen was coated on a CM5 chip at a concentration of 5,000 resonance units (RU). The anti-MISIIR antibody molecules were then flowed over the chip and the difference in the response units (RU) between the start point and the end was determined. A negative control protein (Fc) was coated on a chip at 4,800 RU and was used to rule out binding to the Fc portion of the MISIIR-Fc fusion protein. The association and dissociation rates, and the affinity of each molecule for MISIIR ECD were determined by passing serially diluted samples over an MISIIR-Fc ECD coated chip with a lower concentration of target antigen (600 RU) as per the BIAcore manufacturer's instructions. The evaluation of the data was done using BIAEvaluation 3.0 software.

The target of assay [3] is T2, MISIIR expressed on IGROV-1 cells (UniProt Q16671 18-573, limits assumed).
T2 construct: whole, on cells; also called MIS type II receptor
T2 sequence (looked up): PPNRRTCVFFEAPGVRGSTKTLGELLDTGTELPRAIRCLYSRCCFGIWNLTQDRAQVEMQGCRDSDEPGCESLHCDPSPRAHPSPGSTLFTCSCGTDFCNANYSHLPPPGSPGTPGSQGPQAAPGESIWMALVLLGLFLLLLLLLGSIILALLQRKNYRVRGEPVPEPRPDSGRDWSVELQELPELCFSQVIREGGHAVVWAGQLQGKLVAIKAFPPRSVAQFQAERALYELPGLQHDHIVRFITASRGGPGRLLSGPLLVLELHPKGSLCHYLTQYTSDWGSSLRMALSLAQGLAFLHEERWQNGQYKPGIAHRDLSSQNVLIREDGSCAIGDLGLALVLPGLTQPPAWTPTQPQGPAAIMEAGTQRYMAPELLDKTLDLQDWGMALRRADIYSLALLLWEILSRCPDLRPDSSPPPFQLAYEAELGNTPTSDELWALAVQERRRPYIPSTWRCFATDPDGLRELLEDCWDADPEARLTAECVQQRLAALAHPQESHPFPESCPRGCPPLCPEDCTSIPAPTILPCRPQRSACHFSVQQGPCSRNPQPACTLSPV
Description: flow cytometry (FACS) on IGROV-1 cells, detection with fluorescein-conjugated goat anti-human IgG; concentration not given. Here is the method: The binding of the antibodies was also tested in a standard fluorescence-activated cell sorter (FACS) assay.

Assay [4] has as its target T1, MISIIR-Fc ECD fusion protein. Description: SPR (BIAcore 1000), chip coated with MISIIR (MISIIR-Fc ECD fusion protein), scFv-Fc flowed over; analyte concentration not given; time unit not given. Here is the method: as §1

B1: scFv antibody molecule of clone #29 (scFv)
scFv: MAQVQLVQSGGGLVQPGGSLRLSCAASGFTVSSNYMSWVRQAPGKGLEWVSAISGSGGSTYYADSVKGRFTISRDNSKNTLYLQMNSLRAEDTAVYYCATRPSRGSSGWYGGDYWGQGTLVTVSSGGGGSGGGGSGGGGSSYELTQPPSTSGTPGQRVTISCSGSTSNIATNNVNWYQFLPGTAPKLLMYRNDQRPAGVPDRFSGSKSGTSASLAISGLQPEDEADYYCAAWDDSLGGEVFGTGTKVNVLGQPKAAPSAA
In the case of B1, the binding result in assay [1] is listed as “binds”.

B2: anti-MISIIR scFv of clone #17 (scFv)
scFv: MAQVTLKESGPTLVKPTQTLTLTCTFSGFSLTTSGVGVGWIRQAPGKAPEWLALIDWDDDKYYSTSLKTRLTISKDTSKNQVVLTMTNMDPVDTATYYCARDSYYGSGSHFDFWGQGTLVTVSSGGGGSGGGGSGGGGSSYELTQPPSVSVSPGQTATITCSGHDLRNKYAHWYQQKPGQSPVLVVYQDAKRPSGIPERFSGSNSGNTATLTISGTQAMDEADYYCQTWDRSTVVFGGGTKLTVLGQPKAAPSAA
notes: Expressed from pCYN (pUC119mychis) in E. coli and purified by IMAC; It carries C-terminal myc and His tags
In the case of B2, binding in assay [2] was put at a Kd of 90 nM.

B3: GY4 scFv antibody molecule (scFv)
scFv: MAQITLKESGPTLVKPTQTLTLTCTVSGFSLSNARMGVSWIRQPPGKALEWLALIYRDNDKRYNPSLKSRLTITKDTSKNQVVLTMSNMDPVDTATYYCAHSLVVPAANPFDYWGQGTLVTVSSSASGAELGGGGSGGGGSGGGGSTSQAVLTQPSSLSASPGASASLTCTLRSGINVGTYRIYWYQQKPGSPPQYLLRYKSDSDKQKGSGVPSRFSGSKDASANAGILLISGLQSEDEADYYCMIWHTSAYVFGTGTKVTVLGSS
As for B3, in assay [1], the binding result is on record as “binds”.

B4: anti-MISIIR scFv of clone #7 (scFv)
scFv: MAQVQLVQSGTEVKRPGASVKISCRATGYTFSDYGISWMRQAPGQGLEWMGWISAYNGNTNYAQKLQGRVTMTTDTSTSTAYMELRSLRYDDTAVYYCARDGRRGSGIYWGVYYYNGMDVWGQGTTVTVSSGGGGSGGGGSGGGGSQPVLTQPPSASGTPGQRVTISCSGSRSNIGRNTVNWYQQVPGMAPKLLIYSNNQRPSGVPDRFSGSKSGTSASLAISGLQSEDEADYYCAAWDDSLNGVVFGGGTKLTVLGQPKAAP
notes: Expressed from pCYN (pUC119mychis) with myc and His tags
Turning to B4, in assay [2], binding was put at a Kd of 300 nM.

B5: M9 scFv antibody molecule (scFv)
scFv: MAQVQLVQSGAEVKKPGASVKVSCKASGYTFTSYDINWVRQATGQGLEWMGWMNPNSGNTGYAQKFQGRVTMTRNTSTNTAYMELTSLTSEDTAVYYCARGSPSPMNVWGQGTTVTVSSGGGGSGGGGSGGGGSQPVLTQPHSVSESPGKTVTISCTRSSGSIANDYVQWFQQRPGSAPTIVIYEDYRRPSGVPDRFSGSIDSSSNSASLTISGLKTEDEADYYCQSYDSSNPYVVFGGGTKLTVLGQPKAAPSAAA
On to B5, for which the binding result in assay [1] is “binds”.

B6: scFv-Fc of clone #7 (Fc fusion)
scFv: QVQLVQSGTEVKRPGASVKISCRATGYTFSDYGISWMRQAPGQGLEWMGWISAYNGNTNYAQKLQGRVTMTTDTSTSTAYMELRSLRYDDTAVYYCARDGRRGSGIYWGVYYYNGMDVWGQGTTVTVSSGGGGSGGGGSGGGGSQPVLTQPPSASGTPGQRVTISCSGSRSNIGRNTVNWYQQVPGMAPKLLIYSNNQRPSGVPDRFSGSKSGTSASLAISGLQSEDEADYYCAAWDDSLNGVVFGGGTKLTVL
notes: Bivalent fusion secreted from mammalian cells; The F105 VH / pelB leader is not part of the secreted protein; Copies '2' follows from 'bivalent'; also called sFv-IgG fusion protein; not shown: Human IgG1 hinge-CH2-CH3 of the hinge stuffer vector, and the junction to it
With B6, the binding result in assay [3] and in assay [4] was “binds” throughout.
